Results on two molecules are retold here after article PMC4874879 (Molecular cell, 2016).

Assay [1] has as its target FLAG- and V5-tagged ATXN7L3 (UniProt Q14CW9). Put plainly: affinity purification with mass spectrometry.
Assay [2] deals with T1, FLAG- and V5-tagged ATXN7L3 (UniProt Q14CW9 1-347).
T1 sequence (looked up): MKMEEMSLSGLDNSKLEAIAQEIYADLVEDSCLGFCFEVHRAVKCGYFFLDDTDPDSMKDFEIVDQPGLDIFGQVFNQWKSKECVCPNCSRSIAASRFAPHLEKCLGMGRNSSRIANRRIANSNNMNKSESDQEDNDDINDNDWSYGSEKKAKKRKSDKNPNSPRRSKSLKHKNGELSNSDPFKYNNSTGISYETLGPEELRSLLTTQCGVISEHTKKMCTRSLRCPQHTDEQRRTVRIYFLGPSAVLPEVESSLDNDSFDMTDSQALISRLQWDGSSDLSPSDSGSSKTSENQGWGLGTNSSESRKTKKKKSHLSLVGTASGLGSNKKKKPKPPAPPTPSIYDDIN
As to the kind of experiment: affinity purification with mass spectrometry.

Regarding USP27X (endogenous) (enzyme), the fold increase of association with ATXN7L3 upon depletion of USP22 in assay [1] came to 5.5 fold.

B1: USP51 (endogenous) (enzyme, human (endogenous in 293T), UniProt Q70EK9 1-711, looked up)
chain: MAQVRETSLPSGSGVRWISGGGGGASPEEAVEKAGKMEEAAAGATKASSRREAEEMKLEPLQEREPAPEENLTWSSSGGDEKVLPSIPLRCHSSSSPVCPRRKPRPRPQPRARSRSQPGLSAPPPPPARPPPPPPPPPPPAPRPRAWRGSRRRSRPGSRPQTRRSCSGDLDGSGDPGGLGDWLLEVEFGQGPTGCSHVESFKVGKNWQKNLRLIYQRFVWSGTPETRKRKAKSCICHVCSTHMNRLHSCLSCVFFGCFTEKHIHKHAETKQHHLAVDLYHGVIYCFMCKDYVYDKDIEQIAKETKEKILRLLTSTSTDVSHQQFMTSGFEDKQSTCETKEQEPKLVKPKKKRRKKSVYTVGLRGLINLGNTCFMNCIVQALTHIPLLKDFFLSDKHKCIMTSPSLCLVCEMSSLFHAMYSGSRTPHIPYKLLHLIWIHAEHLAGYRQQDAHEFLIAILDVLHRHSKDDSGGQEANNPNCCNCIIDQIFTGGLQSDVTCQACHSVSTTIDPCWDISLDLPGSCATFDSQNPERADSTVSRDDHIPGIPSLTDCLQWFTRPEHLGSSAKIKCNSCQSYQESTKQLTMKKLPIVACFHLKRFEHVGKQRRKINTFISFPLELDMTPFLASTKESRMKEGQPPTDCVPNENKYSLFAVINHHGTLESGHYTSFIRQQKDQWFSCDDAIITKATIEDLLYSEGYLLFYHKQGLEKD
Take B1: the “fold increase of association with ATXN7L3 upon depletion of USP22” value in assay [2] is ~4 fold.
